Percent of DEC205+ DCs bound by FITC-PDI data for one substance are collected here from publication PMC8080076.

For this test, the target named is DEC205 (human (endogenous in blood DCs)) (UniProt O60449). In words: flow cytometry on cells. (A flow cytometer gives signals particle by particle.)
UniProt O60449, sequence (O60449 28-1722): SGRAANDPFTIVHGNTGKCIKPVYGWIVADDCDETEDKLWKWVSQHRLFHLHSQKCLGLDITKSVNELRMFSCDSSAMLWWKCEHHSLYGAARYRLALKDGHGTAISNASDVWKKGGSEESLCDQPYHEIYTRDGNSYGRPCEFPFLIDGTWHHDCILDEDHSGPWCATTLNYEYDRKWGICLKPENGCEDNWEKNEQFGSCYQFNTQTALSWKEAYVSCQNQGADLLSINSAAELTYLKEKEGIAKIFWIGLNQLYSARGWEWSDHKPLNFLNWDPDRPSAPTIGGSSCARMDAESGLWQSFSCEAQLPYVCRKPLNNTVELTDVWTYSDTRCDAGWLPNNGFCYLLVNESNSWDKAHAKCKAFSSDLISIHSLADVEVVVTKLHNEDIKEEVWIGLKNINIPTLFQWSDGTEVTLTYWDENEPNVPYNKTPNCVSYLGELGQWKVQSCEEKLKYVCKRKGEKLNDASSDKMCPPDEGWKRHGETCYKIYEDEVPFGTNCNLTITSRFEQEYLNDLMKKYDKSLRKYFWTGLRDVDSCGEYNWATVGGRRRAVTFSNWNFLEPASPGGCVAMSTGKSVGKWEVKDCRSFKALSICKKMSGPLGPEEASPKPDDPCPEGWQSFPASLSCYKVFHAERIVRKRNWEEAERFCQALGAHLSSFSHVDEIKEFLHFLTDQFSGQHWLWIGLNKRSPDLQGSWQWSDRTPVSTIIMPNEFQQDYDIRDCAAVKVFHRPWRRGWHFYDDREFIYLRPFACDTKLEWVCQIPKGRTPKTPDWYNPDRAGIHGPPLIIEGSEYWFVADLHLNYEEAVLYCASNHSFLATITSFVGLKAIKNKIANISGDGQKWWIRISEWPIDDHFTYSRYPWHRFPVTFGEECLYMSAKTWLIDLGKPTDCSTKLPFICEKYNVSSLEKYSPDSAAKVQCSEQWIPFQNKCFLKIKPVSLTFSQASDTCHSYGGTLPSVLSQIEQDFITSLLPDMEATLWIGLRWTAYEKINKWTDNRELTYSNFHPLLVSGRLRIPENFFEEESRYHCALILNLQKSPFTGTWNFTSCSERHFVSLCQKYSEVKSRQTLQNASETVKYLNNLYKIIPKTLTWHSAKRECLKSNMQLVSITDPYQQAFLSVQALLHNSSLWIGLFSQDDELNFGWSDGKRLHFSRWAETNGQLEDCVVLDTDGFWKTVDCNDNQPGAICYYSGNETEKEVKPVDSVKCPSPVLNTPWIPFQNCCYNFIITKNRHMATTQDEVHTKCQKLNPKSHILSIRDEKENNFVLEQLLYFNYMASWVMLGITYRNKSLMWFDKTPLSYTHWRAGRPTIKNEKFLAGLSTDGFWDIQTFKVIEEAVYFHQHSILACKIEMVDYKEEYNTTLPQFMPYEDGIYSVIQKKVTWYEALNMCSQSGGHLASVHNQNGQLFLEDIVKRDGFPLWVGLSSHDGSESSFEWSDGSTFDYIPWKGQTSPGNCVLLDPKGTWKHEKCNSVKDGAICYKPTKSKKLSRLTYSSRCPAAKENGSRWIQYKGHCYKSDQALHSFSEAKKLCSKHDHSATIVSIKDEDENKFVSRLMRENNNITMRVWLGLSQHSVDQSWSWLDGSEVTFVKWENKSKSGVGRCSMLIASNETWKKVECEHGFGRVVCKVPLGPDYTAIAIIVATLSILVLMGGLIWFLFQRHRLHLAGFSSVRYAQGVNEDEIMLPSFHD

For “FITC-labeled HDM-derived PDI, recombinant (enzyme)”, the percent of DEC205+ DCs bound by FITC-PDI was greater than 50%.
